The values below come from patent publication US20100297726A1 (AMANO ENZYME, published 2010).

For the test, the target named is T1, mature transglutaminase (Streptomyces mobaraensis strain No. 140226) (Streptomyces mobaraensis, UniProt P81453 77-407).
T1 construct: Natural enzyme from the culture solution; also called mature TGase; M-TGase
T1 sequence: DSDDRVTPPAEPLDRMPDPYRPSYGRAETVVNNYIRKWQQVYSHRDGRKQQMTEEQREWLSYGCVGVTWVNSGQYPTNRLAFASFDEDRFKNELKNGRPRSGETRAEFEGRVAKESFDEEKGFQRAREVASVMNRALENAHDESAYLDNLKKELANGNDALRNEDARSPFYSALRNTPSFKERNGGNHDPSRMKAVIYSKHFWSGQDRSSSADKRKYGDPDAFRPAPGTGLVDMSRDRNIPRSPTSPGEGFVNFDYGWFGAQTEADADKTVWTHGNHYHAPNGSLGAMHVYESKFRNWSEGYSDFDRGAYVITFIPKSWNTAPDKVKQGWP
Description: gel filtration (Sephacryl S-100), elution patterns with and without SDS. As to the method: On the other hand, ammonium sulfate was added to the recovered supernatant until the concentration of saturated solution was achieved, and precipitates were recovered. The recovered precipitates were dissolved in 20 mM phosphate buffer solution (KPB; pH 7.2), and then dialyzed against the same buffer solution. Next, ammonium sulfate was added to the dialysate so that 1.7 M ammonium sulfate was obtained, which was subjected to Phenyl-Sepharose 6 Fast Flow equilibrated with 20 mM phosphate buffer solution (KPB; pH 7.2) containing 1.7 M ammonium sulfate, washed with 1.7 M ammonium sulfate, and eluted with 1.0 M ammonium sulfate. Thus, the target stabilized TGase (P-TGase) was eluted in the eluted fraction. The specific activity of the thus obtained P-TGase (u/Abs 280 nm) was 7.9. The elution patterns of gel filtration (Sephacryl S-100) was compared between the case in which SDS (sodium dodecyl sulfate) was added and the case in which SDS was not added.
In general terms: SEC sorts molecules by how far they enter the pores of the column.

B1: pro-sequence peptide of transglutaminase (2) DNGAGEETKSYAETYRLTADDVANINALNESAPAAS (peptide)
peptide: DNGAGEETKSYAETYRLTADDVANINALNESAPAAS
notes: Recovered from P-TGase of Streptomyces mobaraensis strain No. 140226 after SDS treatment and gel filtration
With B1, the binding result was “binds”.

B2: pro-sequence peptide of transglutaminase (1) DNGAGEETKSYAETYRLTADDVANINALNESAPAA (peptide)
peptide: DNGAGEETKSYAETYRLTADDVANINALNESAPAA
notes: Recovered from P-TGase of Streptomyces mobaraensis strain No. 140226 after SDS treatment and gel filtration; One of three peptide species found in the P-TGase preparation
B2: the binding result is on record as “binds”.

B3: pro-sequence peptide of transglutaminase (3) DNGAGEETKSYAETYRLTADDVANINALNESAPAASS (peptide)
peptide: DNGAGEETKSYAETYRLTADDVANINALNESAPAASS
notes: as for B1
As for B3, the binding result was “binds”.
